Columns and labels:
[1] = target: CD3 epsilon-delta heterodimeric protein (Acro Biosystems) (Homo sapiens (assumed)) (UniProt P07766); experiment: SPR; IgGs or Fc fusions captured on antihuman Fc polyclonal antibodies amine-coupled to a CM5 chip; spike trimer or CD3 epsilon-delta heterodimer injected; blank flow cell subtracted; 1:1 Langmuir model, simultaneous global fit of ka and kd, KD = kd/ka; BIAcore 2000 (methods) or BIAcore T100 (footnote of Table S3)
[2] = target: T1, CD3 epsilon-delta heterodimeric protein (Acro Biosystems) (Homo sapiens (assumed), UniProt P07766;P04234); experiment: as above; details: both partners purified
T1 construct: also called recombinant CD3delta epsilon; CD3delta-epsilon
T1 sequence (P07766 23-126, stated change not applied, chain 1 of 2): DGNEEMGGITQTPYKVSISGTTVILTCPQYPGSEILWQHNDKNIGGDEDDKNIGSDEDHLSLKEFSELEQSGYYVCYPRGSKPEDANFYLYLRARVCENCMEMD
T1 sequence (P04234 22-171, stated change not applied, chain 2 of 2): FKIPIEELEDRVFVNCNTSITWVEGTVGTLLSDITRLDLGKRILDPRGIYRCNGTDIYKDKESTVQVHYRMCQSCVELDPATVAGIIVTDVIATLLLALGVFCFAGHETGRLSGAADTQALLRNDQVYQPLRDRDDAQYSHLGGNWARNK

SC02, anti-S/CD3 bispecific CrossMab from CV3-25/UCHT1 (bispecific antibody), sequence (P07766 23-126): as the sequence (P07766 23-126, stated change not applied, chain 1 of 2) above
SC02, anti-S/CD3 bispecific CrossMab from CV3-25/UCHT1 (bispecific antibody), sequence (P04234 22-171, further chain): as the sequence (P04234 22-171, stated change not applied, chain 2 of 2) above

Molecule	Kd [1] [nM]	koff [1] [s⁻¹]	kon [1] [M⁻¹ s⁻¹]	Kd [2] [nM]
SC02, anti-S/CD3 bispecific CrossMab from CV3-25/UCHT1 (bispecific antibody)	0.29	0.000285	974000	–
humanized UCHT1 (anti-CD3) (antibody, V domains shown, also called anti-CD3 antibody) VH: EVQLVESGGGLVQPGGSLRLSCAASGYSFTGYTMNWVRQAPGKGLEWVALINPYKGVSTYNQKFKDRFTISVDKSKNTAYLQMNSLRAEDTAVYYCARSGYYGDSDWYFDVWGQGTLVTVSS VL: DIQMTQSPSSLSASVGDRVTITCRASQDIRNYLNWYQQKPGKAPKLLIYYTSRLESGVPSRFSGSGSGTDYTLTISSLQPEDFATYYCQQGNTLPWTFGQGTKVEIK	–	–	–	0.16

From paper PMC12005765 (Advanced Science, 2025)
